{
  "source": "the DeepSol protein solubility set",
  "data": [
    {"assay": "soluble on expression in E. coli; label from the status in PepcDB or PDB records", "values": [
      {"sequence": "MTHRTKTRPVKVGNLTIGGNNELIIQSMTTTKTHDVEATVAEIKRLEEAGCQVVRVAVPDERAANAIADIKKQINIPLVADIHFDYRLALKAIEGGIDKVRINPGNIGRRHKVEAVVNAAKERGIPIRIGVNAGSLERHILEKYGYPTADGMVESALHHIKILEDLDFHDIIVSMKASDVNLAIEAYEKAARAFDYPLHLGITESGTLFAGTVKSAAGLGAILNKGIGNTLRISLSADPVEEVKVARELLKSFGLASNAATLISCPTCGRIEIDLISIANEVEEYISTLQVPIKVAVLGCAVNGPGEAREADIGIAGARGEGLLFRKGQVVRKVPEEIMVEELKKEIDVIAAEMAAEREKEKETQEQ", "soluble on expression in E. coli": "not soluble"},
      {"sequence": "MAHHHHHHMSFKQVFLRDNEECQAFPWDALTHPSQSAGEERRTIHHHLAWPAVCEREEAVMGTQPARKVSELTSVSFFLQPPFAIPRRKTGRSSLGCRHDRPLYAAGSAGPRCGDKPTLFVGAAEADFCDDMGWRQRSNSPVSSVEHNAEDDGEDFDVEPVVLKRSLSEKDRRKRLHLSEMSARLCHAFAMKPFRLACGLGLDESDDGVGMENQSGWGAGEEAAVPLREKDDDDDTTPARQTAPISETQRGNTALNFTDNDLSVVRAIALALMEEGEKKRRQEMRRKTN", "soluble on expression in E. coli": "not soluble"},
      {"sequence": "MMAAREQRSFRQLSLLRQFEGQSLLCASMNIPGPIKCSESLNKTFQSIINLVKEDLRGRIIFEREVHQKTGWEYYCLSDLPVSELKTKMIAIETKISIGRLMDLDVLHLVNGIPQPISRQELGFPRRQCYICQNDAKVCSRSRKHSVIEMQEAIAKFIKINH", "soluble on expression in E. coli": "not soluble"},
      {"sequence": "MVPKTATSTETKTITRIIHYVDKVTNQNVKEDVVQPVTLSRTKTENKVTGVVTYGEWTTGNWDEVISGKIDKYKDPDIPTVESQEVTSDSSDKEITVRYDRLSTPEKPIPQPNPEHPSVPTPNPELPNQETPTPDKPTPEPGTPKTETPVNPDPEVPTYETGKREELPNTGTEANATLASAGIMTLLAGLGLGFFKKKEDEKLEHHHHHH", "soluble on expression in E. coli": "soluble"},
      {"sequence": "MIEFKNVSKHFGPTQVLHNIDLNIRQGEVVVIIGPSGSGKSTLLRCINKLEEITSGDLIVDGLKVNDPKVDERLIRQEAGMVFQQFYLFPHLTALENVMFGPLRVRGVKKEEAEKQAKALLAKVGLAERAHHYPSELSGGQQQRVAIARALAVKPKMMLFDEPTSALDPELRHEVLKVMQDLAEEGMTMVIVTHEIGFAEKVASRLIFIDKGRIAEDGSPQALIENPPSPRLQEFLQHVS", "soluble on expression in E. coli": "not soluble"},
      {"sequence": "MPERFVEMLREENGKIIVRIPGETARYANLEGKEGEYLLVDLVKVFDPHLKLPTHSIGEKAICRTVTFRDNRGYEHLGLEIPQELVNDYGMKAGEYLEAVIEHAILRDKIAAVYPNLEILNQYPYWWRKISQ", "soluble on expression in E. coli": "not soluble"},
      {"sequence": "SVDYVFNKVMQPHQQMRIRVALGIEDDLRGGGYNVDQSKIAIGSGGFMGKGFLKGTQTKLKYVPEQDTDFIFCTVGEEQG", "soluble on expression in E. coli": "not soluble"},
      {"sequence": "MNGNIIGEDEKGVALFVEDNSGNEHEIGVNSEGDIFHHADNVIPDNPSERSDKEDETFSQVRRFARYHVYREKGYDTIPTDENPDRIAAVLLAIIDLDDEEFENRFKPLYKQVMSHERPDVEPSLDLPDSVYHGGEPCYKQNIYLEESLEEMKSTVSEQLVESIGQEQITEVLQADSGDFFSRAASLFGGPNGNYGGLTIDGISGIDTVHLVDGKEQTIKSDDPFERGPDARLELYPSNFDFEAFRFYIGYNLICQIRDCFIGMGVEPPAQYRVLGPGKDKYTGKYHAFDFYPEYHNPGATIPGYIRPAPI", "soluble on expression in E. coli": "not soluble"},
      {"sequence": "GAMAMPMIEYLERFSLKAKINNTTNLDYSRRFLEPFLRGINVVYTPPQSFQSAPRVYRVNGLSRAPASSETFEHDGKKVTIASYFHSRNYPLKFPQLHCLNVGSSIKSILLPIELCSIEEGQALNRKDGATQVANMIKYAATS", "soluble on expression in E. coli": "soluble"},
      {"sequence": "MSLQTYSSSKRFNINVSQTIGRRIYMEDMVMIKGELFDGIDYIGVFDGHNGKDAAKKAMETFHKLLDEYLIKSDHYLEHLNHICNEIQQLISFTTASGTTASVIIIREDDVIFCYIGDSPIYIKSNEQVKKISIDHNTSNEEEVKRIINCGGSVVDINGTKRVNSKIVLTRSLGDKSLHPPLTNEPTIISIPLNEIDSIIVASDGISSISCELLNELTNPTFGLEQQAVNIRNIAYEKNSPDNISVVVIQITQPIISEGHHHHHH", "soluble on expression in E. coli": "soluble"},
      {"sequence": "GMDKYLSANSLEGVIDNEFSMPAPRWLNTYPAGPYRFINREFFIIAYETDPDLLQAILPPDMELLEPVVKFEFIRMPDSTGFGDYTESGQVVPVRYKGEEGGFTISMFLDCHAPIAGGREIWGFPKKLAKPKLFVEEDTLIGILKYGSIDIAIATMGYKHRPLDAEKVLESVKKPVFLLKNIPNVDGTPLVNQLTKTYLTDITVKGAWTGPGSLELHPHALAPISNLYIKKIVSVSHFITDLTLPYGKVVADYLA", "soluble on expression in E. coli": "soluble"},
      {"sequence": "MKKRHLLSLLALGISTACYGETYPAPIGPSQSDFGGVGLLQTPTARMAREGELSLNYRDNDQYRYYSASVQLFPWLETTLRYTDVRTRQYSSVEAFSGDQTYKDKAFDLKLRLWEESYWLPQVAVGARDIGGTGLFDAEYLVASKAWGPFDFTLGLGWGYLGTSGNVKNPLCSASDKYCYRDNSYKQAGSIDGSQMFHGPASLFGGVEYQTPWQPLRLKLEYEGNNYQQDFAGKLEQKSKFNVGAIYRVTDWADVNLSYERGNTFMFGVTLRTNFNDLRPSYNDNARPQYQPQPQDAILQHSVVANQLTLLKYNAGLADPQIQAKGDTLYVTGEQVKYRDSREGIIRANRIVMNDLPDGIKTIRITENRLNMPQVTTETDVASLKNHLAGEPLGHETTLAQKRVEPVVPQSTEQGWYIDKSRFDFHIDPVLNQSVGGPENFYMYQLGVMGTADLWLTDHLLTTGSLFANLANNYDKFNYTNPPQDSHLPRVRTHVREYVQNDVYVNNLQANYFQHLGNGFYGQVYGGYLETMFGGAGAEVLYRPLDSNWAFGLDANYVKQRDWRSAKDMMKFTDYSVKTGHLTAYWTPSFAQDVLVKASVGQYLAGDKGGTLEIAKRFDSGVVVGGYATITNVSKEEYGEGDFTKGVYVSVPLDLFSSGPTRSRAAIGWTPLTRDGGQQLGRKFQLYDMTSDRSVNFRLEHHHHHH", "soluble on expression in E. coli": "not soluble"},
      {"sequence": "MGSDKIHHHHHHMNAQIKIINTANGYMALCQDTPEDITPAWFSVDFWREKSAVVGSSKGRYTTWFVAFEHSHWVLRHYWRGGMMEKFSKDAYFYTGLENTRAMGELRLLDALYREQFAVPKPIAANIVRDGLFYRADIIIERVDGAEDLVAKLTKGTMTQAQWHALGATIAQFHRRGVYHADLNAKNILWQPQQTDSAQERFYLIDFDRGELKTPNAKWQKANLDRLLRSFNKEQGKQPTLAFTPANWAALLEGYHAVVPKV", "soluble on expression in E. coli": "not soluble"},
      {"sequence": "MSLTASSSEEKADKSQELVIYSNSVSNGRGDWLTAKAKEAGFNIKMVDIAGAQLADRVIAEKNNAVADMVFGIGAVDSNKIRDQKLLVQYKPKWLDKIDQSLSDKDNYYNPVIVQPLVLIGAPDVKEMPKDWTELGSKYKGKYSIYGLQGGTGRAILASILVRYLDEKGDLGVSEKGWEVAKEYFANAYTLQKGESSVVKALDKESPIQYGMIWGSGALIGQKEQNVEFKVMTPEIGVPFVTEQTMVLSTSKKQALAKEFIDWFGQSEIQVEYSKKFGSIPANKDALKELPEDTKKFVDQVKPQNIDWEAVGKHLDEWVEKAELEYVKEGHHHHHH", "soluble on expression in E. coli": "soluble"},
      {"sequence": "MNTMLNPHYQQIWQTVQLIPQGKVACYGQIADLAGLPGRARLVGKSLGKVPKDGWRGQRVPWFRVINSQGKISFPPGSENFDKQKHHLQDEQVVVIGSRIKLKEFQWKPDLSELLFSLEFLEHHHHHH", "soluble on expression in E. coli": "not soluble"},
      {"sequence": "MDGIFAGIICNQANRCLTWTSQQLFSEKISGAEGTKLDDEFLDMERKIDVTNKVVAEILSKTTEYLQPNPAYRAKLGMLNTVSKIRGQVKTTGYPQTEGLLGDCMLKYGKELGEDSTFGNALIEVGESMKLMAEVKDSLDINVKQTFIDPLQLLQDKDLKEIGHHLKKLEGRRLDYDYKKKRVGKIPDEEVRQAVEKFEESKELAERSMFNFLENDVEQVSQLAVFIEAALDYHRQSTEILQELQSKLQMRISAASSVPRREYKPRPVKRSSSELNGVSTTSVVKTTGSNIPMDQPCCRGLYDFEPENQGELGFKEGDIITLTNQIDENWYEGMIHGESGFFPINYVEVIVPLPQ", "soluble on expression in E. coli": "soluble"}
    ]}
  ]
}
